From paper PMC9482650, “Quantitative fragmentomics allow affinity mapping of interactomes” (Nature Communications, 2022)

T1: SNTB1, Q13884
T1 sequence (Q13884 107-205, limits assumed, looked up): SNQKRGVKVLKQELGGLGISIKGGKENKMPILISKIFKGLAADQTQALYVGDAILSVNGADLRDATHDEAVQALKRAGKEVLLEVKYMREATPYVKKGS

T2: PDZD7_3, Q9H5P4
T2 sequence (Q9H5P4 857-944, limits assumed, looked up): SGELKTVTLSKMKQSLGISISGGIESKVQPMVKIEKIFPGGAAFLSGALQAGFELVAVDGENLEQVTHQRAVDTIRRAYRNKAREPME

T3: GRIP1_3, Q9Y3R0
T3 sequence (Q9Y3R0 247-346, limits assumed, looked up): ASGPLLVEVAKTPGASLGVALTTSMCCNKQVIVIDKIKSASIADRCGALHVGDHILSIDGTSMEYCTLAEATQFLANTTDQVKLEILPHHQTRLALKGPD

T4: MPDZ_10, O75970
T4 sequence (O75970 1624-1722, limits assumed, looked up): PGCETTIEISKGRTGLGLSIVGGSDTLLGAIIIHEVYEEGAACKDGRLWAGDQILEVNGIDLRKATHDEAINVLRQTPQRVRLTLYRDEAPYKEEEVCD

T5: TX1BP3, O14907
T5 sequence (O14907 10-122, limits assumed, looked up): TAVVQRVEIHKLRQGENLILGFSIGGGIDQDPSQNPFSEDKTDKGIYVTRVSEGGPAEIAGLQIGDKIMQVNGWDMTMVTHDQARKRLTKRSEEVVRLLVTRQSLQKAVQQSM

T6: SYNJ2BP, P57105
T6 sequence (P57105 8-110, limits assumed, looked up): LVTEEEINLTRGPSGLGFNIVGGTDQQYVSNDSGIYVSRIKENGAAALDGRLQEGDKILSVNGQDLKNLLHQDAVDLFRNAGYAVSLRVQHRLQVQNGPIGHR

T7: GRIP1_7, Q9Y3R0
T7 sequence (Q9Y3R0 999-1096, limits assumed, looked up): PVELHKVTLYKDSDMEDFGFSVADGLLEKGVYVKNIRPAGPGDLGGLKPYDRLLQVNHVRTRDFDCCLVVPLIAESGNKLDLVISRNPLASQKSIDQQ

T8: APBA1_1, Q02410
T8 sequence (Q02410 651-752, limits assumed, looked up): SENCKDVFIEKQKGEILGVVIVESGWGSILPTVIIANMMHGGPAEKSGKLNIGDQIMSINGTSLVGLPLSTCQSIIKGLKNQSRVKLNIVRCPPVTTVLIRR

T9: APBA1_2, Q02410
T9 sequence (Q02410 742-832, limits assumed, looked up): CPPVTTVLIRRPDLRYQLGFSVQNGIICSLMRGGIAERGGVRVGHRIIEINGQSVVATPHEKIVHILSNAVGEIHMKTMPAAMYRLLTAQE

T10: LNX2_3, Q8N448
T10 sequence (Q8N448 463-564, limits assumed, looked up): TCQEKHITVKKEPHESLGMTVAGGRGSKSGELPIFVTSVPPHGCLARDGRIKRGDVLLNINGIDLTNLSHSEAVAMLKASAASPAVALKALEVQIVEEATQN

T11: SHANK1, Q9Y566
T11 sequence (Q9Y566 658-767, limits assumed, looked up): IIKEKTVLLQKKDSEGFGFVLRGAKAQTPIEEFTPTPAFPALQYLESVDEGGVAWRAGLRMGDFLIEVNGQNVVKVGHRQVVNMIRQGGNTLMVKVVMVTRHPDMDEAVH

T12: MPP7, Q5T2T1
T12 sequence (Q5T2T1 134-230, limits assumed, looked up): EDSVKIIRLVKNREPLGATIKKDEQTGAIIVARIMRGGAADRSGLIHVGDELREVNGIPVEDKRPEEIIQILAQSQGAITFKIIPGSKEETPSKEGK

T13: HTRA3, P83110
T13 sequence (P83110 354-453, limits assumed, looked up): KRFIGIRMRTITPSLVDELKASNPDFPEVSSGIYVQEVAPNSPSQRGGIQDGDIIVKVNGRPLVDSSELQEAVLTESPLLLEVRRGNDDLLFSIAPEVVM


What follows are binders tested against PARD3_3, Q8TEW0 (assay: holdup assay). Settings: plain residues with an end cap or a label only (N-terminal biotin on a linker: ado-ado).
Chain of PARD3_3, Q8TEW0 (Q8TEW0 582-685): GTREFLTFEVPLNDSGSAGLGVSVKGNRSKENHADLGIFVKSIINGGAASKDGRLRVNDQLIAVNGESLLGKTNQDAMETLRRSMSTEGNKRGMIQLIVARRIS
Design: key: below the threshold = too weak to quantify, mostly under pKd 3.1 to 4
For NVYGTESVKI [GRIA3, P42263], the pKd was 3.73.

Each binder was assayed against Inadl_1, Q8NI35 (assay: holdup assay). Settings: plain residues with an end cap or a label only (N-terminal biotin on a linker: ado-ado).
Chain of Inadl_1, Q8NI35 (Q8NI35 113-229): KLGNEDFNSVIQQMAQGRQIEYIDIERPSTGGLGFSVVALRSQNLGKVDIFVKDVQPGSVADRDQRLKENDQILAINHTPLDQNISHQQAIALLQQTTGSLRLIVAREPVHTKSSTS
Design: key: below the threshold = too weak to quantify, mostly under pKd 3.1 to 4
In the case of NVYGTESVKI [GRIA3, P42263], the pKd is reported as “below the threshold”.

These binders were tested against DLG2_2, Q15700 (assay: holdup assay). Settings: plain residues with an end cap or a label only (N-terminal biotin on a linker: ado-ado).
Chain of DLG2_2, Q15700 (Q15700 189-283): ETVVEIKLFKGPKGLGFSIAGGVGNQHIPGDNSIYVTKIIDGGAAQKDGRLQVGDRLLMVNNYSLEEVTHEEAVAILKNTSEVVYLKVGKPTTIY
Design: key: below the threshold = too weak to quantify, mostly under pKd 3.1 to 4
In the case of NVYGTESVKI [GRIA3, P42263], the pKd is reported as “below the threshold”.

The binders below were run against GIPC2, Q8TF65 (assay: holdup assay). Settings: plain residues with an end cap or a label only (N-terminal biotin on a linker: ado-ado).
Chain of GIPC2, Q8TF65 (Q8TF65 112-203): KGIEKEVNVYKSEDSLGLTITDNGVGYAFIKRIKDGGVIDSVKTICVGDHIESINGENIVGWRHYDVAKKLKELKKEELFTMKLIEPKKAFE
Design: key: below the threshold = too weak to quantify, mostly under pKd 3.1 to 4
With NVYGTESVKI [GRIA3, P42263] the pKd was “below the threshold”.

Each binder was assayed against MAST1, Q9Y2H9 (assay: holdup assay). Settings: plain residues with an end cap or a label only (N-terminal biotin on a linker: ado-ado).
Chain of MAST1, Q9Y2H9 (Q9Y2H9 962-1065): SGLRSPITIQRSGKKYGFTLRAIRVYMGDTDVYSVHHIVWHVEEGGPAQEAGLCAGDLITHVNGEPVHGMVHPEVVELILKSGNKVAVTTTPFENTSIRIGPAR
Design: key: below the threshold = too weak to quantify, mostly under pKd 3.1 to 4
NVYGTESVKI [GRIA3, P42263] was tested, and the pKd was 3.93.

The binders below were run against T1, SNTB1, Q13884 (assay: holdup assay). Settings: plain residues with an end cap or a label only (N-terminal biotin on a linker: ado-ado).
Design: key: below the threshold = too weak to quantify, mostly under pKd 3.1 to 4
NVYGTESVKI [GRIA3, P42263] was tested, and the pKd was “below the threshold”.

The binders below were run against MAGI3_2, Q5TCQ9 (assay: holdup assay). Settings: plain residues with an end cap or a label only (N-terminal biotin on a linker: ado-ado).
Chain of MAGI3_2, Q5TCQ9 (Q5TCQ9 398-503): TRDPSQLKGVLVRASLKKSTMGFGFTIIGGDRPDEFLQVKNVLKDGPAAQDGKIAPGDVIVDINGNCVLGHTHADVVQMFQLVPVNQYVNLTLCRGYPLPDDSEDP
Design: key: below the threshold = too weak to quantify, mostly under pKd 3.1 to 4
With NVYGTESVKI [GRIA3, P42263] the pKd was “below the threshold”.

The binders below were run against T2, PDZD7_3, Q9H5P4 (assay: holdup assay). Settings: plain residues with an end cap or a label only (N-terminal biotin on a linker: ado-ado).
Design: key: below the threshold = too weak to quantify, mostly under pKd 3.1 to 4
For NVYGTESVKI [GRIA3, P42263], the pKd was “below the threshold”.

Each binder was assayed against T3, GRIP1_3, Q9Y3R0 (assay: holdup assay). Settings: plain residues with an end cap or a label only (N-terminal biotin on a linker: ado-ado).
Design: key: below the threshold = too weak to quantify, mostly under pKd 3.1 to 4
With NVYGTESVKI [GRIA3, P42263] the pKd was “below the threshold”.

What follows are binders tested against GRID2IP_2, A4D2P6 (assay: holdup assay). Settings: plain residues with an end cap or a label only (N-terminal biotin on a linker: ado-ado).
Chain of GRID2IP_2, A4D2P6 (A4D2P6 272-370): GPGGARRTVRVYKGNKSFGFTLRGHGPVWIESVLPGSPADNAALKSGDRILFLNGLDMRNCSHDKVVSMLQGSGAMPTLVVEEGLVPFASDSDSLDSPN
Design: key: below the threshold = too weak to quantify, mostly under pKd 3.1 to 4
For NVYGTESVKI [GRIA3, P42263], the pKd was “below the threshold”.

The binders below were run against T4, MPDZ_10, O75970 (assay: holdup assay). Settings: plain residues with an end cap or a label only (N-terminal biotin on a linker: ado-ado).
Design: key: below the threshold = too weak to quantify, mostly under pKd 3.1 to 4
With NVYGTESVKI [GRIA3, P42263] the pKd was “below the threshold”.

Each binder was assayed against T5, TX1BP3, O14907 (assay: holdup assay). Settings: plain residues with an end cap or a label only (N-terminal biotin on a linker: ado-ado).
Design: key: below the threshold = too weak to quantify, mostly under pKd 3.1 to 4
In the case of NVYGTESVKI [GRIA3, P42263], the pKd is reported as “below the threshold”.

What follows are binders tested against FRMPD2_1, Q68DX3 (assay: holdup assay). Settings: plain residues with an end cap or a label only (N-terminal biotin on a linker: ado-ado).
Chain of FRMPD2_1, Q68DX3 (Q68DX3 770-861): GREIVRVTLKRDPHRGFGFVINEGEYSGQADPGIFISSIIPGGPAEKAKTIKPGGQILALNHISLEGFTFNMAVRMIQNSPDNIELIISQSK
Design: key: below the threshold = too weak to quantify, mostly under pKd 3.1 to 4
With NVYGTESVKI [GRIA3, P42263] the pKd was “below the threshold”.

The binders below were run against T6, SYNJ2BP, P57105 (assay: holdup assay). Settings: plain residues with an end cap or a label only (N-terminal biotin on a linker: ado-ado).
Design: key: below the threshold = too weak to quantify, mostly under pKd 3.1 to 4
In the case of NVYGTESVKI [GRIA3, P42263], the pKd is reported as “below the threshold”.

What follows are binders tested against T7, GRIP1_7, Q9Y3R0 (assay: holdup assay). Settings: plain residues with an end cap or a label only (N-terminal biotin on a linker: ado-ado).
Design: key: below the threshold = too weak to quantify, mostly under pKd 3.1 to 4
With NVYGTESVKI [GRIA3, P42263] the pKd was “below the threshold”.

What follows are binders tested against T8, APBA1_1, Q02410 (assay: holdup assay). Settings: plain residues with an end cap or a label only (N-terminal biotin on a linker: ado-ado).
Design: key: below the threshold = too weak to quantify, mostly under pKd 3.1 to 4
For NVYGTESVKI [GRIA3, P42263], the pKd was “below the threshold”.

What follows are binders tested against GRID2IP_1, A4D2P6 (assay: holdup assay). Settings: plain residues with an end cap or a label only (N-terminal biotin on a linker: ado-ado).
Chain of GRID2IP_1, A4D2P6 (A4D2P6 1-87): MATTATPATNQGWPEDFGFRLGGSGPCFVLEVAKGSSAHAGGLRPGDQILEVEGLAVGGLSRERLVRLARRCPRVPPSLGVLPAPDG
Design: key: below the threshold = too weak to quantify, mostly under pKd 3.1 to 4
With NVYGTESVKI [GRIA3, P42263] the pKd was “below the threshold”.

What follows are binders tested against T9, APBA1_2, Q02410 (assay: holdup assay). Settings: plain residues with an end cap or a label only (N-terminal biotin on a linker: ado-ado).
Design: key: below the threshold = too weak to quantify, mostly under pKd 3.1 to 4
For NVYGTESVKI [GRIA3, P42263], the pKd was “below the threshold”.

These binders were tested against T10, LNX2_3, Q8N448 (assay: holdup assay). Settings: plain residues with an end cap or a label only (N-terminal biotin on a linker: ado-ado).
Design: key: below the threshold = too weak to quantify, mostly under pKd 3.1 to 4
For NVYGTESVKI [GRIA3, P42263], the pKd was “below the threshold”.

These binders were tested against T11, SHANK1, Q9Y566 (assay: holdup assay). Settings: plain residues with an end cap or a label only (N-terminal biotin on a linker: ado-ado).
Design: key: below the threshold = too weak to quantify, mostly under pKd 3.1 to 4
NVYGTESVKI [GRIA3, P42263] was tested, and the pKd was “below the threshold”.

Each binder was assayed against NHERF4_4, Q86UT5 (assay: holdup assay). Settings: plain residues with an end cap or a label only (N-terminal biotin on a linker: ado-ado).
Chain of NHERF4_4, Q86UT5 (Q86UT5 464-550): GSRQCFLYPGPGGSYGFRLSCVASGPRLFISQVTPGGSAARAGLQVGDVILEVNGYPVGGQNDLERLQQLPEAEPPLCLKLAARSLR
Design: key: below the threshold = too weak to quantify, mostly under pKd 3.1 to 4
Binder NVYGTESVKI [GRIA3, P42263] has a pKd of 3.95.

What follows are binders tested against T12, MPP7, Q5T2T1 (assay: holdup assay). Settings: plain residues with an end cap or a label only (N-terminal biotin on a linker: ado-ado).
Design: key: below the threshold = too weak to quantify, mostly under pKd 3.1 to 4
For NVYGTESVKI [GRIA3, P42263], the pKd was “below the threshold”.

What follows are binders tested against T13, HTRA3, P83110 (assay: holdup assay). Settings: plain residues with an end cap or a label only (N-terminal biotin on a linker: ado-ado).
Design: key: below the threshold = too weak to quantify, mostly under pKd 3.1 to 4
In the case of NVYGTESVKI [GRIA3, P42263], the pKd is reported as “below the threshold”.
